Drawing on publication PMC11551315 (Proceedings of the National Academy of Sciences of the …, 2024), this text covers Kd for one molecule.

Like-named read-outs stand apart in the source and are kept apart here.

In assay [1] the target is T1, Cdc15-eGFP (S. cerevisiae, UniProt P27636 1-974).
T1 sequence (looked up): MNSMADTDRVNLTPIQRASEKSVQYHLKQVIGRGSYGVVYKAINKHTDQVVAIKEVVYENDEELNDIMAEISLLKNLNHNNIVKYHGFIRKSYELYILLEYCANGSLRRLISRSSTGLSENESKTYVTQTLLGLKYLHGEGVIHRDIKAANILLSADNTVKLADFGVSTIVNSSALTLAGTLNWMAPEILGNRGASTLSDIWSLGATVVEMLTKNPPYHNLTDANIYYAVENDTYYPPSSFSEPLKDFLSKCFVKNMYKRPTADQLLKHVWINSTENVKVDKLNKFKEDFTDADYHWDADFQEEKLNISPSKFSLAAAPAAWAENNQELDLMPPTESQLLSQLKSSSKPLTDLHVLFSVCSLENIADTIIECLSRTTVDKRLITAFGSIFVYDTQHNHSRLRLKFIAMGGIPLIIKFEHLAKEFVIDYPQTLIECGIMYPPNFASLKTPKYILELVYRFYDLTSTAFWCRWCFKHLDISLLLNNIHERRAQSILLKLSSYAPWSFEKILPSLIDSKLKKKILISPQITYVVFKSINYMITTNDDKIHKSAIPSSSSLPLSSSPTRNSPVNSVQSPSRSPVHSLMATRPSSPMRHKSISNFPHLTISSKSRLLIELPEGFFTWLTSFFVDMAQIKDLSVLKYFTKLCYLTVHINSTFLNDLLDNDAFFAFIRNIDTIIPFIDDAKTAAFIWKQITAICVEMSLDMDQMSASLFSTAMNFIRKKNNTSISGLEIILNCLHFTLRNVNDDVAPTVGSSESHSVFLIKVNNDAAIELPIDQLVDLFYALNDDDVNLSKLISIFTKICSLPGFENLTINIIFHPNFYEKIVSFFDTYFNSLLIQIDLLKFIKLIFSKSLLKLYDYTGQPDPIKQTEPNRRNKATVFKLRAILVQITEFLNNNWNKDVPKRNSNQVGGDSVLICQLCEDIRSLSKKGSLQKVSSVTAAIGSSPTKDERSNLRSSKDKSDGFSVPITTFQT
Description: AlphaScreen or HTRF. On the technique in general: In Alpha technology, singlet oxygen from a donor bead excites a nearby acceptor bead.

The target of assay [2] is T1, Cdc15-eGFP. Description: AlphaScreen or HTRF. This is another data set of the same source.

B1: Recombinant Tem1 (unlabeled) (natural protein, S. cerevisiae, UniProt P38987 1-245, looked up)
chain: MATPSTGANNSIPAVRNQVEVQVGLVGDAQVGKTSLMVKYVQNIYDKEYTQTLGVNFLKRKVSIRSTDIIFSIMDLGGQREFINMLPIATVGSSVIIFLFDLTRPETLSSIKEWYRQAYGLNDSAIPILVGTKYDLLIDLDPEYQEQISRTSMKYAQVMNAPLIFCSTAKSINIQKIFKIALAKIFNLTLTIPEINEIGDPLLIYKHLGGQQHRHHNKSQDRKSHNIRKPSSSPSSKAPSPGVNT
Take B1: the dissociation constant Kd in assay [1] worked out at 16 ± 3 nM; in assay [2] it was 3.9 ± 0.8 nM.

Broadly, the Kd is the free concentration of one partner at which half of the binding sites on the other are occupied at equilibrium, for simple one-to-one binding. A high value points to a looser complex.
